From US11035860B2, “Auto-active and intracellular mutant of MET” (Stichting Katholieke Universiteit, priority 2014, dated 2021)
“Also recorded” adds a separate entry of the source.

Experiments:
METΔ7-8 = biological target: T1, METΔ7-8 (Homo sapiens, UniProt P08581, DEL622-701); test: MET phosphorylation in serum-starved E98 cells (western blot); assay type: cell-based; conditions: FIG. 5
T1 construct: the majority of MET protein was in a 180 kDa phosphorylated form, corresponding to the uncleaved truncated preform; endogenous in cells; host or cells: E98 glioma cells, serum-starved
Method: (§1) All cell lines were maintained at 37° C. in the presence of 5% CO2. To examine HGF-induced MET activation, E98 and A549 cells were seeded in 6 wells plates. The next day cells were serum-starved overnight. The following day cells were treated for 10 minutes (min) with HGF (50 ng/mL, Miltenyi Biotec, Bergisch Gladbach, Germany).
(§2) Cell lysates were prepared using RIPA buffer containing protease and phosphatase inhibitors (Cell Signaling Technology, CST, Danvers, Mass., USA). RIPA extracts (20-40 μg per lane) and His-tagged proteins from conditioned media (equivalent of 20 μl conditioned medium) were subjected to PAGE on 8-10% polyacrylamide gels and western blotting according to standard procedures. Nitrocellulose blots (Whatman Optitran BA-S85, GE Healthcare, Little Chalfont, UK) were blocked with PBS/Odyssey Blocking Buffer (LI-COR Biosciences, Lincoln, Nebr., USA) (1:1), followed by overnight incubation with primary antibodies at 4° C. […] Biotin groups and primary antibodies were visualized using respectively streptavidin-680 (Molecular Probes, Life Technology) and appropriate secondary antibodies [goat-anti-rabbit-IRDye800 (Rockland Immunochemicals, Gilbertsville, Pa., USA) or Alexa Fluor 680 goat-anti-mouse IgG (Molecular Probes, Life Technologies)]. Blots were scanned on the Odyssey imager (LI-COR Biosciences).

AKT [1] = test: AKT phosphorylation in E98 cells (western blot); assay type: cell-based, human; conditions: serum-starved E98 cells; FIG. 5
Method: (§3) The E98 cell line and xenograft model and genetic analysis thereof have been described before (Caretti et al., 2011; Claes et al., 2008). E98, U87, A549, HEK-293T and TOV-112D cells were cultured in DMEM+4.5 g/L glucose medium (PAA Laboratories, Pasching, Austria) supplemented with 10% fetal calf serum (FCS) (PAA) and gentamycin (40 μg/mL). All cell lines were maintained at 37° C. in the presence of 5% CO2. To examine HGF-induced MET activation, E98 and A549 cells were seeded in 6 wells plates. The next day cells were serum-starved overnight. The following day cells were treated for 10 minutes (min) with HGF (50 ng/mL, Miltenyi Biotec, Bergisch Gladbach, Germany). In some experiments, prior to HGF incubation cells were incubated with the anti-MET llama VHH G2 (Heukers et al., 2014) or cabozantinib (XL-184, Exelixis, San Francisco, Calif.) for 60 min.
(§4) Cell lysates were prepared using RIPA buffer containing protease and phosphatase inhibitors (Cell Signaling Technology, CST, Danvers, Mass., USA). RIPA extracts (20-40 μg per lane) and His-tagged proteins from conditioned media (equivalent of 20 μl conditioned medium) were subjected to PAGE on 8-10% polyacrylamide gels and western blotting according to standard procedures. […]

wtMET = biological target: T2, wtMET (Homo sapiens, UniProt P08581); test: MET phosphorylation in serum-starved A549 cells (western blot); assay type: cell-based; conditions: FIG. 1B, FIG. 5
T2 construct: in A549 cells the matured, cleaved MET protein was the predominant form; endogenous in cells; host or cells: A549 cells, serum-starved
Method: as §1, §2

AKT [2] = test: AKT phosphorylation in A549 cells (western blot); assay type: cell-based, human; conditions: FIG. 5
Method: as §3, §4

lung cancer = conditions: phase II study, lung cancer (Spigel et al., 2013); cited from earlier work

Row | Substance | activation of the minority of processed β-fragment of MET (METΔ7-8) | overall MET phosphorylation levels (METΔ7-8; HGF 50 ng/mL 10 min, G2 or cabozantinib 60 min, FIG. 1B) | levels of pAKT (AKT [1]) | MET phosphorylation (wtMET) | levels of pAKT (AKT [2]) | primary end point of prolonged survival (lung cancer)
1 | HGF: ligand Hepatocyte Growth Factor (HGF, Scatter Factor) of MET | slight activation | did not further increase | neither G2 nor HGF treatment resulted in altered levels | required for MET activation; also recorded: induced MET phosphorylation | increased levels of pAKT | –
2 | MetMab: antibody; MET activation inhibitor tested in a phase II study for lung cancer | – | – | – | – | – | failed to meet the primary end point
